Test results published in the supplement of paper PMC10201428.
± gives the standard deviation of the averaged measurements.

system: VchCAST RNA-guided transposition machinery (E. coli BL21(DE3) host, lacZ target); assay: relative integration efficiency (T-RL orientation) vs wild-type transposon end (log2 (normalized fold change)); transposon end mutated: right end (5 bp flank + 75 bp right end); higher = more efficient transposition
Method in brief: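 Barcode abundances in input plasmids and in genomic integration junctions were obtained by PCR amplification and Illumina sequencing. These came from E. coli BL21(DE3) co-transformed with a T7-driven effector plasmid and a pUC57 donor carrying 1549 left-end or 1849 right-end transposon variants, then plated with 0.1 mM IPTG at 37°C for 18 h. Relative integration efficiency is the output/input fold change, normalised to reference barcodes and log-transformed.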

Row | Sequence | relative integration efficiency (log2)
1 | ACATTTGTTGATACAACCATAAAATGATAATTACACCCATAAATTGATAATGATGACACCGAATTTAACTATAACGCTCTGATCATAGTCAGACCAACATTGCTACGACCCGTATTCGCACCGACAC | -1.34 ± 0.27
2 | ACATTTGTGGATCCAACCATAAAATGATAATTACACCCATAAATGGATAATTATCACACCCAATTTAACTATAACGCTCTGATCATAGTCAGACCAACATTGCTACGACCCGTATTCGCACCGACAC | -1.38 ± 0.18
3 | ACATTTGTTTATACAACCATAAAATGATAATTACACCCATAAATTTATTATTATCACACCCAATTTAACTATAACGCTCTGATCATAGTCAGACCAACATTGCTACGACCCGTATTCGCACCGACAC | -2.66 ± 0.6
4 | ACATTTGTTGATACAACCATAAAATGATAATTAATAATTATTTATAATCAGCAACTTAACCACCACCCATAAATTGATAATTATCACACCCATAAATTGATATTGCCTCTGATCATAGTCAGACCAA | -3.5 ± 0.74
5 | ACATTTGTTGATACAACCATAAGTTGATATTTTCAACCATAAAATGATAATTATCACAACCATAAAATGATAATTACTCTGATCATAGTCAGACCAACATTGCTACGACCCGTATTCGCACCGACAC | -0.00738 ± 0.052
6 | ACATTTGTTGATACAACCATAAAATGATAATTACACCCATAAATTGATAATTATCAAACACCCATAAATTGATATTGCCTCTGATCATAGTCAGACCAACATTGCTACGACCCGTATTCGCACCGAC | -0.252 ± 0.046
7 | ACATTTGTTGATACAACCATAAAATGATAATTAATAATTATTTATAATCAGCAACTTACACCCATAAATTGATAATTATCAACAAACGCCCGGTCGCGGTACTCTGATCATAGTCAGACCAACATTG | -4.47 ± 1
8 | ACATTTGTTGATACAACCATCAAATGATAATTCCACCCCTACATTGATAATTATCACACCCAATTTAACTATAACGCTCTGATCATAGTCAGACCAACATTGCTACGACCCGTATTCGCACCGACAC | -4.18 ± 0.17
9 | ACATTTGTTGATACAACCATAAAATGATAATTCACCCATAAATTGATAATTATCACACCCACATTTAACTATAACGCTCTGATCATAGTCAGACCAACATTGCTACGACCCGTATTCGCACCGACAC | -2.03 ± 0.22
10 | ACATTTGTTGATACAACCATATATTGATATCTCCACCCATAAATTGATAATTATCACAACCATATATTGATATCTCCTCTGATCATAGTCAGACCAACATTGCTACGACCCGTATTCGCACCGACAC | -0.13 ± 0.1
11 | ACATTTGTTGATACAACCATAAAATGGTAATTCCACCCCTACATTGATAATTATCACACCCAATTTAACTATAACGCTCTGATCATAGTCAGACCAACATTGCTACGACCCGTATTCGCACCGACAC | -3.92 ± 0.41
12 | ACATTTTGTGATACAACCATAAAATGATAATTACACCCATAAATTGATAATTATCACACCCATAAATTGATATTGCCTCTGATCATAGTCAGACCAACATTGCTACGACCCGTATTCGCACCGACAC | -6.54 ± 0.24
13 | ACATTTGTTGATACAACCATAAAATGATAATTACACCCATAAATTTCGCCGGCGACACAAACGCCCGGTCGCGGTAAGAGGATCATAGTCAGACCAACATTGCTACGACCCGTATTCGCACCGACAC | -2.05 ± 0.15
14 | ACATTTGTTGATACAACCATAAAATGATAATTAGTCCCATAAATTGATAATTATCACACCCATAAATTGATATTGCCTCTGATCATAGTCAGACCAACATTGCTACGACCCGTATTCGCACCGACAC | -0.921 ± 0.049
15 | ACATTTGTTGATACAACCATAAAATGATAATTACACCCATAAATTGATAATTATCACACCCATAAATTGATATTGCCTCTGGCTAGCATTATACCTAGGACTGAGCTAGCTGTCAACGCACCGACAC | -2.99 ± 0.27
16 | ACATTTGTTGATAGTTGCATAAAATGATAATTACACCCATAAATTGATAATTATCACACCCATAAATTGATATTGCCTCTGATCATAGTCAGACCAACATTGCTACGACCCGTATTCGCACCGACAC | -1.07 ± 0.13

Row | Sequence | relative integration efficiency (log2)
17 | ACATTTGTTGATACAACCATAAAATGATACACCCATAAATTGATAATTATCACACCCATAAATTGATATTGCCTCTGATCATAGTCAGACCAACATTGCTACGACCCGTATTCGCACCGACACTGAC | -4.54 ± 0.12
18 | ACATTTGTTGATACAACCATAAAATGATAATTACACCCATAAATGGATAATTATCACCCCCAATTTAACTATAACGCTCTGATCATAGTCAGACCAACATTGCTACGACCCGTATTCGCACCGACAC | -1.3 ± 0.18
19 | ACATTTGTTCATACAACCCTAAAATGATAATTACACCCATAAATTCATCATTATCACACCCAATTTAACTATAACGCTCTGATCATAGTCAGACCAACATTGCTACGACCCGTATTCGCACCGACAC | -5.84 ± 0.57
20 | ACATTTGTTGATACAACCATAAGTTGATATTTTCAACCATATATTGATATCTCTCACACCCATAAATTGATATTGCCTCTGATCATAGTCAGACCAACATTGCTACGACCCGTATTCGCACCGACAC | -0.363 ± 0.0055
21 | ACATTTGTTGATACAACCATAAAATGATAATTACACCCATAAATTGATAATTATCACACCCATAAATTGATATTGCCTCTCAACCATAAAATGATAATTAGATCATAGTCAGACCAAGCACCGACAC | -0.0518 ± 0.26
22 | ACATTTGTTGATACAACCATAAAGTGATATTTACAACCATAAGTTGATATTTTTCACAACCATAAAATGATAATTACTCTGATCATAGTCAGACCAACATTGCTACGACCCGTATTCGCACCGACAC | -0.0427 ± 0.12
23 | ACATTTGTTGATACAACCATAAAATGATACGTACACCCATAAATTGATAATTATCACACCCATAAATTGATATTGCCTCTGATCATAGTCAGACCAACATTGCTACGACCCGTATTCGCACCGACAC | -0.82 ± 0.068
24 | ACATTTGTTGATACACCCATAAATTGATATTGCCAACCATAAGTTGATATTTTTCACAACCATATATTGATATCTCCTCTGATCATAGTCAGACCAACATTGCTACGACCCGTATTCGCACCGACAC | -0.899 ± 0.17
25 | ACATTTGTCGATACAACCATAAAATGATAATTACCACCCCTACATTGATAATTATCACACCCATTTAACTATAACGCTCTGATCATAGTCAGACCAACATTGCTACGACCCGTATTCGCACCGACAC | -3.06 ± 0.23
26 | ACATTTGTTGATACAACCATAAAATGATCATTACCCCCATCAATTGATAATTATCACACCCCATTTAACTATAACGCTCTGATCATAGTCAGACCAACATTGCTACGACCCGTATTCGCACCGACAC | -3.74 ± 0.21
27 | ACATTTGTTGATACAACCATAAAATGATAATTACACCCATAAATTGATAATTATCACACCCATAAATTGATATTGCCTCTGATCACAACCATAAAATGATAATTATAGTCAGACCAAGCACCGACAC | -0.0149 ± 0.23
28 | ACATTTGTTGATAGTTGGTATTTTACTATTAATGTGGGTATTTAACTATTAATTCACACCCATAAATTGATATTGCCTCTGATCATAGTCAGACCAACATTGCTACGACCCGTATTCGCACCGACAC | -6.222 ± 0.043
29 | ACATTTGTTGATACAACCATAAAATGATAATTACACCCATAAATTGATAAGGCGACACAAACGCCCGGTCGCGGTAAGAGGATCATAGTCAGACCAACATTGCTACGACCCGTATTCGCACCGACAC | -0.882 ± 0.14
30 | ACATTTGTTGATACAACCATAAAATGATAATTACTCTGATCATAGTCAGACCAACATTCACCCATAAATTGATAATTATCACACCCATAAATTGATATTGCGCTACGACCCGTATTCGCACCGACAC | -4.53 ± 0.13
31 | ACATTTGTGGATACAACCATAAAATGATAATTACACCCATAAATTGATAATTATCACCCCCAATTTAACTATAACGCTCTGATCATAGTCAGACCAACATTGCTACGACCCGTATTCGCACCGACAC | -0.606 ± 0.13
32 | ACATTTGTTGATACAACCATAAAAGGATCATTCACCCCTAAATTGATAATTATCACACCCACATTTAACTATAACGCTCTGATCATAGTCAGACCAACATTGCTACGACCCGTATTCGCACCGACAC | -4.73 ± 0.18
